Reference: PMC2196875

Target: titin fragment Z9-Z10 as used in isothermal titration calorimetry (human)
Test: ITC

Work on “untagged obscurin fragment Ob48-Ob49 (domain or fragment)” yielded a Kd of 100 to 200 nM.
